In patent publication US20190241648A1 (STATEN BIOTECHNOLOGY B V, published 2019):
Ends that are not written are not given here.

Tests used:
Experiment in all cases: cyclic peptide substitution array
ApoC3 peptide E63I = target: T1, ApoC3 peptide E63I (human, cyclic (thioether))
T1 peptide: DKFSIFWDLDPEV
In short: (§1)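 Peptide microarrays incubated with antibody samples, then stained with goat anti-human IgG (Fc) DyLight680 and anti-HA DyLight800 control antibodies, scanned at intensity 7/7 (red/green). Secondary-only pre-stain checked background binding; framing HA peptides served as quality control; substitution effects read as changes in spot intensity.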

ApoC3 peptide V71F = target: T2, ApoC3 peptide V71F (human, thioether (positions not given here); also: cyclic (thioether), ring places not given here)
T2 peptide: DKFSEFWDLDPEF
In short: as §1

ApoC3 peptide F61T = target: T3, ApoC3 peptide F61T (human, cyclic (thioether))
T3 peptide: DKTSEFWDLDPEV
In short: as §1

ApoC3 peptide D66H = target: T4, ApoC3 peptide D66H (human, not fully specified; cyclic (thioether))
T4 peptide: DKFSEFWHLDPEV
In short: as §1

ApoC3 peptide E70Y = target: T5, ApoC3 peptide E70Y (human, cyclic (thioether))
T5 peptide: DKFSEFWDLDPYV
In short: as §1

ApoC3 peptide D68Q = target: T6, ApoC3 peptide D68Q (human, cyclic (thioether))
T6 peptide: DKFSEFWDLQPEV
In short: as §1

ApoC3 peptide D66G = target: T7, ApoC3 peptide D66G (human, not fully specified; cyclic (thioether))
T7 peptide: DKFSEFWGLDPEV
In short: as §1

ApoC3 peptide K60D = target: T8, ApoC3 peptide K60D (human, thioether (positions not given here); not fully specified (bridges); also: cyclic (thioether), positions not given here)
T8 peptide: DDFSEFWDLDPEV
In short: as §1

ApoC3 peptide D59N = target: T9, ApoC3 peptide D59N (human, thioether (positions not given here); not fully specified (C-terminus, bridges); also: cyclised via thioether between a C-terminal Cys and a modified N-terminus, the Cys and the N-terminal …)
T9 peptide: NKFSEFWDLDPEV
In short: as §1

ApoC3 peptide D59Y = target: T10, ApoC3 peptide D59Y (human, not fully specified; cyclic (thioether))
T10 peptide: YKFSEFWDLDPEV
In short: as §1

ApoC3 peptide W65Q = target: T11, ApoC3 peptide W65Q (human, cyclic (thioether))
T11 peptide: DKFSEFQDLDPEV
In short: as §1

ApoC3 peptide D66P = target: T12, ApoC3 peptide D66P (human, not fully specified; cyclic (thioether))
T12 peptide: DKFSEFWPLDPEV
In short: as §1

ApoC3 peptide K60L = target: T13, ApoC3 peptide K60L (human, cyclic (thioether))
T13 peptide: DLFSEFWDLDPEV
In short: as §1

ApoC3 peptide F64E = target: T14, ApoC3 peptide F64E (human, cyclic (thioether))
T14 peptide: DKFSEEWDLDPEV
In short: as §1

ApoC3 peptide L67P = target: T15, ApoC3 peptide L67P (human, thioether (positions not given here); not fully specified (bridges); also: thioether between a C-terminal Cys side chain and a modified N-terminus, the Cys is not in the chain)
T15 peptide: DKFSEFWDPDPEV
In short: as §1

ApoC3 peptide D66A = target: T16, ApoC3 peptide D66A (human, not fully specified; cyclic (thioether))
T16 peptide: DKFSEFWALDPEV
In short: as §1

ApoC3 peptide F64N = target: T17, ApoC3 peptide F64N (human, thioether (positions not given here); not fully specified (bridges); also: cyclic (thioether), positions not given here)
T17 peptide: DKFSENWDLDPEV
In short: as §1

ApoC3 peptide F61Q = target: T18, ApoC3 peptide F61Q (human, cyclic (thioether))
T18 peptide: DKQSEFWDLDPEV
In short: as §1

ApoC3 peptide D59S = target: T19, ApoC3 peptide D59S (human, thioether (positions not given here); not fully specified (C-terminus, bridges); also: cyclised via thioether between a C-terminal Cys and a modified N-terminus, the Cys and the N-terminal …)
T19 peptide: SKFSEFWDLDPEV
In short: as §1

ApoC3 peptide F61N = target: T20, ApoC3 peptide F61N (human, cyclic (thioether))
T20 peptide: DKNSEFWDLDPEV
In short: as §1

ApoC3 peptide D66Q = target: T21, ApoC3 peptide D66Q (human, not fully specified; cyclic (thioether))
T21 peptide: DKFSEFWQLDPEV
In short: as §1

ApoC3 peptide W65A = target: T22, ApoC3 peptide W65A (human, not fully specified; cyclic (thioether))
T22 peptide: DKFSEFADLDPEV
In short: as §1

ApoC3 peptide P69N = target: T23, ApoC3 peptide P69N (human, not fully specified; cyclic (thioether))
T23 peptide: DKFSEFWDLDNEV
In short: as §1

ApoC3 peptide D68L = target: T24, ApoC3 peptide D68L (human, cyclic (thioether))
T24 peptide: DKFSEFWDLLPEV
In short: as §1

ApoC3 peptide P69L = target: T25, ApoC3 peptide P69L (human, not fully specified; cyclic (thioether))
T25 peptide: DKFSEFWDLDLEV
In short: as §1

ApoC3 peptide K60Y = target: T26, ApoC3 peptide K60Y (human, cyclic (thioether))
T26 peptide: DYFSEFWDLDPEV
In short: as §1

ApoC3 peptide F61E = target: T27, ApoC3 peptide F61E (human, cyclic (thioether))
T27 peptide: DKESEFWDLDPEV
In short: as §1

ApoC3 peptide K60M = target: T28, ApoC3 peptide K60M (human, cyclic (thioether))
T28 peptide: DMFSEFWDLDPEV
In short: as §1

ApoC3 peptide E63F = target: T29, ApoC3 peptide E63F (human, not fully specified; cyclic (thioether))
T29 peptide: DKFSFFWDLDPEV
In short: as §1

ApoC3 peptide P69W = target: T30, ApoC3 peptide P69W (human, not fully specified; cyclic (thioether))
T30 peptide: DKFSEFWDLDWEV
In short: as §1

ApoC3 peptide S62N = target: T31, ApoC3 peptide S62N (human, thioether (positions not given here); also: cyclic (thioether), ring places not given here)
T31 peptide: DKFNEFWDLDPEV
In short: as §1

B1: Llama antibody 5E5 (antibody, V domains shown)
VH: QLQLVESGGGLVQPGGSLRLSCAASGFTFGTYSMRWVRQVPRKALEWVSSISTDGGGTAYRDSVKGRFTISRDNAKNTLYLQMNNLKPEDTAIYYCVIAGYSDWGQGTQVTVSS
VL: ATMLTQSPGSLSVVPGESASISCKTSQGLVHSDGKTYFYWFLQKPGQSPQQLIYQVSNRASGVPDRFTGSGSGTDFTLKISGVKAEDAGVYYCAQGTYYPHTFGSGTRLEIK
notes: detected with goat anti-human IgG (Fc); also called mAb 5E5
% of binding to wild-type peptide (ApoC3 peptide E63I): 0%
% of binding to wild-type peptide (ApoC3 peptide V71F): 81.4%
% of binding to wild-type peptide (ApoC3 peptide F61T): 40.3%
% of binding to wild-type peptide (ApoC3 peptide D66H): 0%
% of binding to wild-type peptide (ApoC3 peptide E70Y): 50.7%
% of binding to wild-type peptide (ApoC3 peptide D68Q): 0.96%
% of binding to wild-type peptide (ApoC3 peptide D66G): 0%
% of binding to wild-type peptide (ApoC3 peptide K60D): 200%
% of binding to wild-type peptide (ApoC3 peptide D59N): 52.5%
% of binding to wild-type peptide (ApoC3 peptide D59Y): 50.3%
% of binding to wild-type peptide (ApoC3 peptide W65Q): 0%
% of binding to wild-type peptide (ApoC3 peptide D66P): 0%
% of binding to wild-type peptide (ApoC3 peptide K60L): 107%
% of binding to wild-type peptide (ApoC3 peptide F64E): 283%
% of binding to wild-type peptide (ApoC3 peptide L67P): 25.5%
% of binding to wild-type peptide (ApoC3 peptide D66A): 0%
% of binding to wild-type peptide (ApoC3 peptide F64N): 234%
% of binding to wild-type peptide (ApoC3 peptide F61Q): 75.6%
% of binding to wild-type peptide (ApoC3 peptide D59S): 57.7%
% of binding to wild-type peptide (ApoC3 peptide F61N): 25.9%
% of binding to wild-type peptide (ApoC3 peptide D66Q): 0%
% of binding to wild-type peptide (ApoC3 peptide W65A): 0%
% of binding to wild-type peptide (ApoC3 peptide P69N): 19.4%
% of binding to wild-type peptide (ApoC3 peptide D68L): 0%
% of binding to wild-type peptide (ApoC3 peptide P69L): 16.7%
% of binding to wild-type peptide (ApoC3 peptide K60Y): 56.3%
% of binding to wild-type peptide (ApoC3 peptide F61E): 180%
% of binding to wild-type peptide (ApoC3 peptide K60M): 186%
% of binding to wild-type peptide (ApoC3 peptide E63F): 57.1%
% of binding to wild-type peptide (ApoC3 peptide P69W): 5.36%
% of binding to wild-type peptide (ApoC3 peptide S62N): 0%
